Reference: paper doi:10.1101/2025.05.02.651933 (bioRxiv, 2025)

Target: HIV gp120 monomer of strain CN97001 (HIV-1, strain CN97001 (paper: clade C); …, UniProt G4XFJ5, strain)
Test: BLI

B1: recombinant bnAb 10-1074 (from pTT3 10-1074 NHP-IgG) (antibody, V domains shown)
VH: QVQLQESGPGLVKPSETLSVTCSVSGDSMNNYYWTWIRQSPGKGLEWIGYISDRESATYNPSLNSRVVISRDTSKNQLSLKLNSVTPADTAVYYCATARRGQRIYGVVSFGEFFYYYSMDVWGKGTTVTVSS
VL: LSVALGETARISCGRQALGSRAVQWYQHRPGQAPILLIYNNQDRPSGIPERFSGTPDINFGTRATLTISGVEAGDEADYYCHMWDSRSGFSWSFGGATRLTVL
- binding result: binds
